Data published in patent US20230012273A1 (Boehringer Ingelheim, published 2023).

Key:
[1] = target: T1, human SIRPγ extracellular domain + His-tag (NP_061026.2) (human, UniProt Q9P1W8 29-360); test: SPR, Ab captured, ECD-His analyte
T1 construct: also called hSIRPγ; HuSIRPγ
In short: (§1)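 SPR; Ab capture surface, ethanolamine-deactivated (1M, 420 s, 10 μl/min). Analyte: SIRP ECD+His, 2-fold dilution series in 1×HBS-EP+. Inject 300 s @ 30 μl/min; dissoc. 600 s.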

[2] = target: T2, human SIRPαV1 extracellular domain + His-tag (NP_542970.1) (human, UniProt P78324 31-373); test: SPR, Ab captured, ECD-His analyte
T2 construct: also called hSIRPαV1; HuSIRPαV1
In short: as §1

[3] = target: T3, human SIRPβL/SIRPβ1v3 extracellular domain + His-tag (NP_001129316.1) (human, UniProt Q5TFQ8 30-371); test: SPR, Ab captured, ECD-His analyte
T3 construct: also called hSIRPβ1v3; HuSIRPβ1v3
In short: as §1

[4] = target: T4, human SIRPαV2 extracellular domain + His-tag (CAA71403.1) (human, UniProt P78324 31-373); test: SPR, Ab captured, ECD-His analyte
T4 construct: also called hSIRPαV2; HuSIRPαV2
In short: as §1

[5] = target: T5, human SIRPβ1 extracellular domain + His-tag (NP_006056.2) (human, UniProt O00241 30-371); test: SPR, Ab captured, ECD-His analyte
T5 construct: also called hSIRPβ1; HuSIRPβ1
In short: as §1

[6] = target: T6, full-length human SIRPγ (NP_061026.2) on cells (human, UniProt Q9P1W8 29-387); test: flow cytometry, primary human CD3+ T cells
T6 construct: on CHO and Expi-CHO cells; endogenous on primary human CD3+ T cells; also called γ WT
Description: Antibody binding to primary human T cells expressing endogenous SIRPγ is evaluated by flow cytometry. Human peripheral blood mononuclear cells (PBMCs) are blocked with donkey IgG and incubated on ice with increasing concentrations of antibody for 60 minutes, washed and stained with AF647-conjugated donkey F(ab′)₂ anti-human IgG secondary reagent. […] Cells are washed, fixed, and analyzed by flow cytometry. Median fluorescent intensity of CD3+ gated population is determined and used as a measure of antibody binding.

[7] = target: T7, full-length human SIRPβ1 (NP_006056.2) on cells (human, UniProt O00241 30-398); test: flow cytometry, U937 SIRPα KO cells
T7 construct: on U937 SIRPα KO cells and Expi-CHO cells; also called β1 WT
Description: Antibody binding to cells expressing full-length human SIRPβ1 (NP_006056.2) and SIRPβL (NP_001129316.1) is evaluated by flow cytometry. SIRPβ1- or SIRPβL-expressing U937^{SIRPα KO} cells are blocked with donkey IgG and incubated on ice with increasing concentrations of antibodies for 60 minutes, washed and stained with AF647-conjugated donkey F(ab′)₂ anti-human IgG secondary reagent. Cells are washed, fixed, and analyzed by flow cytometry. Median fluorescent intensity is determined and used as a measure of antibody binding.

T1 sequence (Q9P1W8 29-360): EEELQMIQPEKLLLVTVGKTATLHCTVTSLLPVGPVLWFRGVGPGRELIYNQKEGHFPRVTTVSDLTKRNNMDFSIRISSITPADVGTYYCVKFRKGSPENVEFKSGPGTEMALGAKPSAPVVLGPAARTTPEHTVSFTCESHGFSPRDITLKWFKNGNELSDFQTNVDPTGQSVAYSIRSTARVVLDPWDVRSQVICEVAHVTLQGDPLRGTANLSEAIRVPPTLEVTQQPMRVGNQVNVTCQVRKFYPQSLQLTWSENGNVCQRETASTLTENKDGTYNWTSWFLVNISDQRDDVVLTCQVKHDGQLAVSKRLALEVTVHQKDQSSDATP
T6 sequence (Q9P1W8 29-387): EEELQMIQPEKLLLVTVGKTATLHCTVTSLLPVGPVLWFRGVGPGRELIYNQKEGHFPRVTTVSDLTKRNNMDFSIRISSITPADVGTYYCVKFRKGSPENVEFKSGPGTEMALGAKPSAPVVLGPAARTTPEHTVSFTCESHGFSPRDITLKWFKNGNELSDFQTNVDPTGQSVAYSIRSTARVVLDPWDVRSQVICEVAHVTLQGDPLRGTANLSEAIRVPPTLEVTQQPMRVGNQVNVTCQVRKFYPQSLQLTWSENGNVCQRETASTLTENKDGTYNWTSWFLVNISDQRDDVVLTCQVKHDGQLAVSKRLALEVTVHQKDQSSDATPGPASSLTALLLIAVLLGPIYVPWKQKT
T5 sequence (O00241 other isoform, or with tags, fused parts or gaps): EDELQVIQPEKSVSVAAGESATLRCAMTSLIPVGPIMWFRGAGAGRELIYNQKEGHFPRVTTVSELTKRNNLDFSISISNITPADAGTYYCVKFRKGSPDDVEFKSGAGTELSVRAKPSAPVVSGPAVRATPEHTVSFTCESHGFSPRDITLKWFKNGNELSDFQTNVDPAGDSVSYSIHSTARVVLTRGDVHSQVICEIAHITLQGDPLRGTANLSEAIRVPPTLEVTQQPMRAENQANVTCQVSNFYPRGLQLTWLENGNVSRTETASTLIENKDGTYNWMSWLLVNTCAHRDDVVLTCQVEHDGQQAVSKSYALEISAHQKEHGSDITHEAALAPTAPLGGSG
T3 sequence (Q5TFQ8 other isoform, or with tags, fused parts or gaps): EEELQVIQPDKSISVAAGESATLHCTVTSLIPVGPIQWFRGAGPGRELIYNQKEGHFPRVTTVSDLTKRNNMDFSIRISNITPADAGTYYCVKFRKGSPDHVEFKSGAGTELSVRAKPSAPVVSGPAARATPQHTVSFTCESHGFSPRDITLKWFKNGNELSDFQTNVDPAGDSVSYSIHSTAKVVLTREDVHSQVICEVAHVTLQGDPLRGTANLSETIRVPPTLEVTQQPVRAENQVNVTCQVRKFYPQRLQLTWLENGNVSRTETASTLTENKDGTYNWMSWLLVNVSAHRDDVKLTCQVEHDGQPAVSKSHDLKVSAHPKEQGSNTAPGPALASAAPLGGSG
T7 sequence (O00241 30-398): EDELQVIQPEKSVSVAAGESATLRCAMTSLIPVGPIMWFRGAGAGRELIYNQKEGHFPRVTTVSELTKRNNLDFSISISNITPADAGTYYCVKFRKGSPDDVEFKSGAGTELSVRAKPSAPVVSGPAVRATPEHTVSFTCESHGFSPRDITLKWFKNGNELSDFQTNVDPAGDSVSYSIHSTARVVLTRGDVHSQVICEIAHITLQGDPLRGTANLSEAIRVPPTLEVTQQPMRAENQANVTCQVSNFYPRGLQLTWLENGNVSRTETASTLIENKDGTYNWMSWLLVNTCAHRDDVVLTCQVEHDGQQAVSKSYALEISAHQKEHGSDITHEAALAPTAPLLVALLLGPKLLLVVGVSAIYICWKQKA
T2 sequence (P78324 other isoform, or with tags, fused parts or gaps): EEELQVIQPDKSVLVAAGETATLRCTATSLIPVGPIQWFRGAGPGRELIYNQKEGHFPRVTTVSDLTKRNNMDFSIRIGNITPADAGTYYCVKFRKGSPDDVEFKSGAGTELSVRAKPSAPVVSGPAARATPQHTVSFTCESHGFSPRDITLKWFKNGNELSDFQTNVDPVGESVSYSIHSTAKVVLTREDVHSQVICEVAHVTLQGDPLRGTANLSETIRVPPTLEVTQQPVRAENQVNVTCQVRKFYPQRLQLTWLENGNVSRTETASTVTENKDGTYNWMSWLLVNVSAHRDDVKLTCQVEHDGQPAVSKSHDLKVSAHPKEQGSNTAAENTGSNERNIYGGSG
T4 sequence (P78324 other isoform, or with tags, fused parts or gaps): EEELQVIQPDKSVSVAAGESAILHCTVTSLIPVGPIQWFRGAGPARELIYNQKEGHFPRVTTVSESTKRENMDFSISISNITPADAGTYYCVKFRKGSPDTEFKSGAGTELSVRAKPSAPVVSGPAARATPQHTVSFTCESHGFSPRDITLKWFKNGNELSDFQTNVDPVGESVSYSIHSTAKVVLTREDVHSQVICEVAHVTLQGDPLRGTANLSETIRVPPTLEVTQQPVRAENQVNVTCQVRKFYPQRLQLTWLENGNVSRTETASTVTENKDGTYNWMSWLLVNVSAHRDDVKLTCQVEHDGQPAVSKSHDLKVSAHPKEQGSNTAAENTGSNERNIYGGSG

binding result [1]: no binding (tested: 1000 nM)
Kd [2]: 1.57 nM
Kd [3]: 3.19 nM
Kd [4]: 1.47 nM
binding result [5]: no binding (tested: 1000 nM)
binding result [6]: no binding
binding result [7]: no binding
B1: Antibody E22 (antibody, human IgG1, kappa, L234A L235A, V domains shown)
VH: QVQLQESGPGLVKPSETLSLTCTVSGGSIRDYYWSWIRQPPGKGLEWIGFIYYNGRTFYQSSLKSRVTISLDTSKNQFSLKMTSVTAADTAVYYCARVRAYSGIGLDGTDVWGQGTTVTVSS
VL: DIVMTQSPLSLPVTPGEPASISCRSSQSLLYSTGYTYLDWYLQRPGQSPQLLIYGGSSRASGVPDRFSGSGSGTDFTLKISRVEAEDVGVFYCGQALQTPLTFGQGTKVEIKR
